# Measurements as given in US20240294593A1 (Genentech, published 2024).
# Changes are numbered by the printed parent chain. Names may count otherwise.
# B1: H1.200_L1.1 (XENP32816) (antibody, human IgG1, kappa, V domains shown)
# VH: EVQLVESGGGLVQPGGSLRLSCAASGFTFSSFGMHWVRQAPGKGLEWVSYISSGSSIIYYADSVKGRFTISRDNAKNSLYLQMNSLRAEDTAVYYCARGHRVVFSPDYWGQGTLVTVSS
# VL: DIVMTQSPDSLAVSLGERATINCKSSQSLLHSGNQKNYLTWYQQKPGQPPKLLIYWASTRESGVPDRFTGSGSGTDFTLTISSLQAEDVAVYYCQNDYSYPFTFGSGTKLEIKR
# notes: VH substitution G108H/L110V/W112F (Xencor #); G96H/L98V/W100F (Kabat); also called mAb C[PD1]_H1.200_L1.1_IgG1_PVA_/S267K
# B2: H1.191_L1.1 (XENP32807) (antibody, human IgG1, kappa, V domains shown)
# VH: B1 VH with H100G, V102L, V103T
# VL: B1 VL
# notes: VH substitution V111T/W112F (Xencor #); V99T/W100F (Kabat); also called mAb C[PD1]_H1.191_L1.1_IgG1_PVA_/S267K
# B3: H1.204_L1.1 (XENP32820) (antibody, human IgG1, kappa, V domains shown)
# VH: B1 VH with H100G, R101Q, V102Q, S105A
# VL: B1 VL
# notes: VH substitution R109Q/L110Q/W112F/S113A (Xencor #); R97Q/L98Q/W100F/S100aA (Kabat); also called mAb C[PD1]_H1.204_L1.1_IgG1_PVA_/S267K
# B4: H1.199_L1.1 (XENP32815) (antibody, human IgG1, kappa, V domains shown)
# VH: B1 VH with H100G, V102L, V103I, P106S
# VL: B1 VL
# notes: VH substitution V111I/W112F/P114S (Xencor #); V99I/W100F/P100bS (Kabat); also called mAb C[PD1]_H1.199_L1.1_IgG1_PVA_/S267K
# B5: H1.193_L1.1 (XENP32809) (antibody, human IgG1, kappa, V domains shown)
# VH: B1 VH with H100G, V102Q, V103L
# VL: B1 VL
# notes: VH substitution L110Q/V111L/W112F (Xencor #); L98Q/V99L/W100F (Kabat); also called mAb C[PD1]_H1.193_L1.1_IgG1_PVA_/S267K
# B6: H1.198_L1.1 (XENP32814) (antibody, human IgG1, kappa, V domains shown)
# VH: B1 VH with H100G, V102L, S105N
# VL: B1 VL
# notes: VH substitution W112F/S113N (Xencor #); W100F/S100aN (Kabat); also called mAb C[PD1]_H1.198_L1.1_IgG1_PVA_/S267K
# B7: H1.194_L1.1 (XENP32810) (antibody, human IgG1, kappa, V domains shown)
# VH: B1 VH with H100G, R101Q, V102L
# VL: B1 VL
# notes: VH substitution R109Q/W112F (Xencor #); R97Q/W100F (Kabat); also called mAb C[PD1]_H1.194_L1.1_IgG1_PVA_/S267K
# B8: H1.192_L1.1 (XENP32808) (antibody, human IgG1, kappa, V domains shown)
# VH: B1 VH with H100G, V102L, V103L, S105A
# VL: B1 VL
# notes: VH substitution V111L/W112F/S113A (Xencor #); V99L/W100F/S100aA (Kabat); also called mAb C[PD1]_H1.192_L1.1_IgG1_PVA_/S267K
# B9: H1.189_L1.1 (XENP32805) (antibody, human IgG1, kappa, V domains shown)
# VH: B1 VH with H100G, V102R, S105T
# VL: B1 VL
# notes: VH substitution L110R/W112F/S113T (Xencor #); L98R/W100F/S100aT (Kabat); also called mAb C[PD1]_H1.189_L1.1_IgG1_PVA_/S267K
# B10: H1.196_L1.1 (XENP32812) (antibody, human IgG1, kappa, V domains shown)
# VH: B1 VH with H100G, V102L, V103F
# VL: B1 VL
# notes: VH substitution V111F/W112F (Xencor #); V99F/W100F (Kabat); also called mAb C[PD1]_H1.196_L1.1_IgG1_PVA_/S267K
# B11: H1.202_L1.1 (XENP32818) (antibody, human IgG1, kappa, V domains shown)
# VH: B1 VH with H100G, V102L, V103Q, S105T
# VL: B1 VL
# notes: VH substitution V111Q/W112F/S113T (Xencor #); V99Q/W100F/S100aT (Kabat); also called mAb C[PD1]_H1.202_L1.1_IgG1_PVA_/S267K
# B12: H1.190_L1.1 (XENP32806) (antibody, human IgG1, kappa, V domains shown)
# VH: B1 VH with H100G, R101A, V102L
# VL: B1 VL
# notes: VH substitution R109A/W112F (Xencor #); R97A/W100F (Kabat); also called mAb C[PD1]_H1.190_L1.1_IgG1_PVA_/S267K
# B13: H1.197_L1.1 (XENP32813) (antibody, human IgG1, kappa, V domains shown)
# VH: B1 VH with H100G, V102L, V103L
# VL: B1 VL
# notes: VH substitution V111L/W112F (Xencor #); V99L/W100F (Kabat); also called mAb C[PD1]_H1.197_L1.1_IgG1_PVA_/S267K
# B14: H1.195_L1.1 (XENP32811) (antibody, human IgG1, kappa, V domains shown)
# VH: B1 VH with H100G, V102Q
# VL: B1 VL
# notes: VH substitution L110Q/W112F (Xencor #); L98Q/W100F (Kabat); also called mAb C[PD1]_H1.195_L1.1_IgG1_PVA_/S267K
# B15: H1_L1.9 (antibody, V domains shown)
# VH: B1 VH with H100G, V102L, F104W
# VL: B1 VL with H31N, S32T
# notes: also called VL-S32T; Kabat 27e
# B16: H1_L1.12 (antibody, V domains shown)
# VH: B1 VH with H100G, V102L, F104W
# VL: B1 VL with H31N, S32V
# notes: also called VL-S32V; Kabat 27e
# B17: H1_L1.14 (antibody, V domains shown)
# VH: B1 VH with H100G, V102L, F104W
# VL: B1 VL with H31N, S32K
# notes: also called VL-S32K; Kabat 27e
# B18: H1_L1.13 (antibody, V domains shown)
# VH: B1 VH with H100G, V102L, F104W
# VL: B1 VL with H31N, S32H
# notes: also called VL-S32H; Kabat 27e
# B19: H1_L1.7 (antibody, V domains shown)
# VH: B1 VH with H100G, V102L, F104W
# VL: B1 VL with H31G
# notes: also called VL-N31G; Kabat 27d
# B20: H1_L1.11 (antibody, V domains shown)
# VH: B1 VH with H100G, V102L, F104W
# VL: B1 VL with H31N, S32Q
# notes: also called VL-S32Q; Kabat 27e
# B21: H1_L1.10 (antibody, V domains shown)
# VH: B1 VH with H100G, V102L, F104W
# VL: B1 VL with H31N, S32A
# notes: also called VL-S32A; Kabat 27e
# B22: H1_L1.8 (antibody, V domains shown)
# VH: B1 VH with H100G, V102L, F104W
# VL: B1 VL with H31Y
# notes: also called VL-N31Y; Kabat 27d
# B23: H1_L1.6 (antibody, V domains shown)
# VH: B1 VH with H100G, V102L, F104W
# VL: B1 VL with H31T
# notes: also called VL-N31T; Kabat 27d
# B24: H1_L1.5 (antibody, V domains shown)
# VH: B1 VH with H100G, V102L, F104W
# VL: B1 VL with H31L
# notes: also called VL-N31L; Kabat 27d
# B25: H1.79_L1 (antibody, V domains shown)
# VH: B1 VH with S56Y, H100G, V102L, F104W
# VL: B1 VL with H31N
# notes: also called VH-S60Y; Kabat 55
# B26: H1.95_L1 (antibody, V domains shown)
# VH: B1 VH with I58N, H100G, V102L, F104W
# VL: B1 VL with H31N
# notes: also called VH-I62N; Kabat 57
# B27: H1.80_L1 (antibody, V domains shown)
# VH: B1 VH with I57V, H100G, V102L, F104W
# VL: B1 VL with H31N
# notes: also called VH-I61V; Kabat 56
# B28: H1.96_L1 (antibody, V domains shown)
# VH: B1 VH with I58E, H100G, V102L, F104W
# VL: B1 VL with H31N
# notes: also called VH-I62E; Kabat 57
# B29: H1.85_L1 (antibody, V domains shown)
# VH: B1 VH with I57A, H100G, V102L, F104W
# VL: B1 VL with H31N
# notes: also called VH-I61A; Kabat 56
# B30: H1.99_L1 (antibody, V domains shown)
# VH: B1 VH with Y59H, H100G, V102L, F104W
# VL: B1 VL with H31N
# notes: also called VH-Y63H; Kabat 58
# B31: H1.90_L1 (antibody, V domains shown)
# VH: B1 VH with I58L, H100G, V102L, F104W
# VL: B1 VL with H31N
# notes: also called VH-I62L; Kabat 57
# B32: H1.97_L1 (antibody, V domains shown)
# VH: B1 VH with I58K, H100G, V102L, F104W
# VL: B1 VL with H31N
# notes: also called VH-I62K; Kabat 57
# B33: H1.94_L1 (antibody, V domains shown)
# VH: B1 VH with I58A, H100G, V102L, F104W
# VL: B1 VL with H31N
# notes: also called VH-I62A; Kabat 57
# B34: H1.89_L1 (antibody, V domains shown)
# VH: B1 VH with I58V, H100G, V102L, F104W
# VL: B1 VL with H31N
# notes: also called VH-I62V; Kabat 57
# B35: H1.91_L1 (antibody, V domains shown)
# VH: B1 VH with I58F, H100G, V102L, F104W
# VL: B1 VL with H31N
# notes: also called VH-I62F; Kabat 57
# B36: H1.92_L1 (antibody, V domains shown)
# VH: B1 VH with I58T, H100G, V102L, F104W
# VL: B1 VL with H31N
# notes: also called VH-I62T; Kabat 57
# B37: H1.93_L1 (antibody, V domains shown)
# VH: B1 VH with I58W, H100G, V102L, F104W
# VL: B1 VL with H31N
# notes: also called VH-I62W; Kabat 57
# Biological target: T1, human PD-1-His (human, UniProt Q15116 25-167, limits assumed)
# T1 construct: Antigen of the Octet assays; not shown: His tag
# Experiment: Octet (BLI), AHC biosensors capture the bivalent mAb, dipped into multiple concentrations of PD-1; KDapp per legend
# T1 sequence (Q15116 25-167 limits assumed): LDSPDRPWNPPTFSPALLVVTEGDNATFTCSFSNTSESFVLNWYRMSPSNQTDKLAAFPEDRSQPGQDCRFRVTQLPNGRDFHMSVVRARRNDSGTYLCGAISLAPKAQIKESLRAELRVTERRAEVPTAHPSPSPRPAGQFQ
row,Kd [nM],Binder
1,20,B1
2,36,B2
3,26.2,B3
4,15.5,B4
5,33.8,B5
6,18.2,B6
7,23.7,B7
8,35.8,B8
9,23.7,B9
10,44.8,B10
11,23,B11
12,14.2,B12
13,35.4,B13
14,41.9,B14

# Biological target: T1, human PD-1-His
# Experiment: Octet (BLI), AHC capture of the bivalent mAb, PD-1 in solution
koff [s⁻¹],kon [M⁻¹ s⁻¹],Binder
0.00672,336000,B1
0.00382,106000,B2
0.00404,154000,B3
0.00155,99700,B4
0.00391,116000,B5
0.00142,78000,B6
0.00395,166000,B7
0.00317,88500,B8
0.00199,83800,B9
0.00475,106000,B10
0.00239,104000,B11
0.00271,191000,B12
0.00436,123000,B13
0.00436,104000,B14

# Biological target: T1, human PD-1-His
# Experiment: Octet
Kd [nM],koff [s⁻¹],kon [M⁻¹ s⁻¹],Binder
46.7,0.005,107000,B15
111,0.0115,104000,B16
170,0.0141,83200,B17
103,0.0106,102000,B18
84.6,0.00875,103000,B19
103,0.00997,96500,B20
82.9,0.00755,91000,B21
307,0.0247,80600,B22
64.6,0.00777,120000,B23
32.9,0.00569,173000,B24

# Biological target: T1, human PD-1-His
# Experiment: Octet
# Remark: another data set of the same source
Kd [nM],koff [s⁻¹],kon [M⁻¹ s⁻¹],Binder
43.4,0.00686,158000,B25
73.4,0.0119,162000,B26
207,0.0466,226000,B27
41.6,0.00751,181000,B28
132,0.0618,467000,B29
261,0.0651,250000,B30
51.5,0.00727,141000,B31
114,0.0175,154000,B32
80.6,0.0161,200000,B33
43.2,0.00669,155000,B34
61,0.00917,150000,B35
47.8,0.00851,178000,B36
31,0.00528,170000,B37
